Laboratory results reported in patent publication US20250257133A1 (ADAGENE PTE, published 2025).
Where a chain is given by its changes, count along the chain named. One block for each binder: values may come before it.

Molecular target: Human CD28 (ELISAs of Examples 4 and 13) (human, UniProt P10747 19-152, limits assumed)
Experiment: ELISA

B1: TY27566 (bispecific antibody, human IgG1, kappa, N297A)
light: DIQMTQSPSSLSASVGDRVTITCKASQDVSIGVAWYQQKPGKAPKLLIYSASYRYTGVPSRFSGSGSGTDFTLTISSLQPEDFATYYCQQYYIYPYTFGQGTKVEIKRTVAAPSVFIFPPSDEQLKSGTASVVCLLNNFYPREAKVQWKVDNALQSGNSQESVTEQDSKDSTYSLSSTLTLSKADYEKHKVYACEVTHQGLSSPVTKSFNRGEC
heavy: EVQLVESGGGLVQPGGSLRLSCAASGFTFTDYTMDWVRQAPGKGLEWVADVNPNSGGSIYNQRFKGRFTLSVDRSKNTLYLQMNSLRAEDTAVYYCARNLGPSFYFDYWGQGTLVTVSSASTKGPSVFPLAPSSKSTSGGTAALGCLVKDYFPEPVTVSWNSGALTSGVHTFPAVLQSSGLYSLSSVVTVPSSSLGTQTYICNVNHKPSNTKVDKKVEPKSCDKTHTCPPCPAPELLGGPSVFLFPPKPKDTLMISRTPEVTCVVVDVSHEDPEVKFNWYVDGVEVHNAKTKPREEQYASTYRVVSVLTVLHQDWLNGKEYKCKVSNKALPAPIEKTISKAKGQPREPQVYTLPPSRKKLTKNQVKLTCLVKGFYPSDIAVEWESNGQPENNYKTTPPVLDCDGSFFLYSKLTVDKSRWQQGNVFSCSVMHEALHNHYTQKSLSLSPGK
chain: DIQLTQSPSSLSASVGDRVTITCRASQSVDFHGISFLHWYQQKPGKAPKLLIYAASSLQSGVPSRFSGSGSGTDFTLTISSLQPEDFATYYCQQSYRSPRTFGQGTKVEIKGGGGSGGGGSGGGGSGGGGSEVQLVESGGGLVQPGGSLRLSCAASGFSLSTGGVGVSWIRQAPGKGLEWIGEIYHSGSTYYSPSLKSRVTISRDNSKNTLYLQLNSLRAEDTAVYYCARYEYYYYDFDYWGQGTLVTVSSEPKSSDKTHTCPPCPAPELLGGPSVFLFPPKPKDTLMISRTPEVTCVVVDVSHEDPEVKFNWYVDGVEVHNAKTKPREEQYASTYRVVSVLTVLHQDWLNGKEYKCKVSNKALPAPIEKTISKAKGQPREPQVYTDPPSRDELTKNQVSLTCLVDGFYPSDIAVEWESNGQPENCYKTTPPVLDSDGSFFLYSKLTVDKSRWQQGNVFSCSVMHEALHNHYTQDSLSLSPGK
notes: also called anti-HER2xCD28 BsAb; TY27566 (WT)
EC50: 3.89 nM

B3: TY28658 (bispecific antibody, human IgG1, kappa, N297A)
light: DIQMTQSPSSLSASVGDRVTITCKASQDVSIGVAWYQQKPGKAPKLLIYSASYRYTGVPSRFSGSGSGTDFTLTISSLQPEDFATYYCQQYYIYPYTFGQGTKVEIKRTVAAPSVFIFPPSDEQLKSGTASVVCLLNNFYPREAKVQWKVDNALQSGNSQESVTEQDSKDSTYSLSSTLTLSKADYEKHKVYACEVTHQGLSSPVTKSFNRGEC
heavy: B1 heavy
chain: B1 chain with H32Y, I34K, Q59E, R100L, G163S, S168G, E183S, S193N, Y234D
notes: anti-HER2 Fab x CD28 scFv BC8240 (VL-VH)-Fc
EC50: 78 nM

B5: TY28654 (bispecific antibody, human IgG1, kappa, N297A)
light: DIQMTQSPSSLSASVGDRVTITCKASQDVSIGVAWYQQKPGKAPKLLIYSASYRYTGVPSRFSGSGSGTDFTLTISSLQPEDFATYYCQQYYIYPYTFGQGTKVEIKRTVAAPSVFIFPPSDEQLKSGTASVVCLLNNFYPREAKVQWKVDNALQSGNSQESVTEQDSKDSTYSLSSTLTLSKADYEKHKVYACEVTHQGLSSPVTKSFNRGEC
heavy: B1 heavy
chain: B1 chain with H32Y, I34K, S98T, R100L, G163S, E183S, S193N, Y234G, D237A
notes: anti-HER2 Fab x CD28 scFv BC8230 (VL-VH)-Fc
EC50: 68.4 nM

B6: TY28653 (bispecific antibody, human IgG1, kappa, N297A)
light: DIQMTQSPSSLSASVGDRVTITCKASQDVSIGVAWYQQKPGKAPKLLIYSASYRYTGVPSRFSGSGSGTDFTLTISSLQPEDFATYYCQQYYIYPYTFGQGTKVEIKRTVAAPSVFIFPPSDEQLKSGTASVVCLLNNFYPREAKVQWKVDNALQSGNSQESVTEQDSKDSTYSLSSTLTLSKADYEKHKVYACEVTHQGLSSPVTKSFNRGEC
heavy: B1 heavy
chain: B1 chain with H32Y, S98T, R100P, E183S, S193N, Y234G, D237A, F238L
notes: anti-HER2 Fab x CD28 scFv BC8228 (VL-VH)-Fc
EC50: 7.3 nM

B7: TY28656 (bispecific antibody, human IgG1, kappa, N297A)
light: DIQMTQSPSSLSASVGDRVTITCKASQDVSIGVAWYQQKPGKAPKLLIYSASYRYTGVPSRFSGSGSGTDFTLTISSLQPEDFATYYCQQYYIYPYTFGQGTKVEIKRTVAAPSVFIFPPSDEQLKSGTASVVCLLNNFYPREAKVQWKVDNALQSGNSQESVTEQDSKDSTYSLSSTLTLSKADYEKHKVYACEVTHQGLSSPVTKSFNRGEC
heavy: B1 heavy
chain: B1 chain with H32Y, I34K, S98T, G163S, S168G, Y191N, S193N, Y234G, D237A, F238L
notes: anti-HER2 Fab x CD28 scFv BC8235 (VL-VH)-Fc
EC50: 128 nM

B9: TY28661 (bispecific antibody, human IgG1, kappa, N297A)
light: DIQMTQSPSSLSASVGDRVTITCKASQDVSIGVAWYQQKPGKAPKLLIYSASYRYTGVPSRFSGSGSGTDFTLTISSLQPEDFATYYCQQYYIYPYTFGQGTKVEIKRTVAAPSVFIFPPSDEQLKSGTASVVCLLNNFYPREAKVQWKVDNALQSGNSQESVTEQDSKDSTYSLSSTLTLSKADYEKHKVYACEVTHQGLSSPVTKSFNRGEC
heavy: B1 heavy
chain: B1 chain with H32Y, Q59E, S98T, R100L, E183S, Y234D, D237A
notes: anti-HER2 Fab x CD28 scFv BC8263 (VL-VH)-Fc
EC50: 52.6 nM

B10: TY28655 (bispecific antibody, human IgG1, kappa, N297A)
light: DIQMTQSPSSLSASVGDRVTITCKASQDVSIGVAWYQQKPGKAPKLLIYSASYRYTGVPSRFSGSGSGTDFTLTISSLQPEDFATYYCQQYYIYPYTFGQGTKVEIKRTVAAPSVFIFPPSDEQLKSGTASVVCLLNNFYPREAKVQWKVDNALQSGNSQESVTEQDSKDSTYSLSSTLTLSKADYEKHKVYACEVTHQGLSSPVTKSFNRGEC
heavy: B1 heavy
chain: B1 chain with H32Y, S98T, G163S, E183S, S193N, Y234D, D237A
notes: anti-HER2 Fab x CD28 scFv BC8233 (VL-VH)-Fc
EC50: 8.14 nM

Results, then the binder that gave them:

EC50: 5.29 nM
B2: TY28657 (bispecific antibody, human IgG1, kappa, N297A)
light: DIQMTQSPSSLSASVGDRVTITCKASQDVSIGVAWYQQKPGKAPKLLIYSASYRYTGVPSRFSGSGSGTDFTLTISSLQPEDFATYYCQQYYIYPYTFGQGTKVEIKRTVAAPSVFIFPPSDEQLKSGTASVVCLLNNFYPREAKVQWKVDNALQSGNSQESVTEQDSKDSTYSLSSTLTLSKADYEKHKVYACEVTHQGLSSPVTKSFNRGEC
heavy: B1 heavy
chain: B1 chain with Q59E, S98T, S168G, S193N, Y234G, D237A
notes: anti-HER2 Fab x CD28 scFv BC8237 (VL-VH)-Fc

EC50: 3.77 nM
B4: TY28660 (bispecific antibody, human IgG1, kappa, N297A)
light: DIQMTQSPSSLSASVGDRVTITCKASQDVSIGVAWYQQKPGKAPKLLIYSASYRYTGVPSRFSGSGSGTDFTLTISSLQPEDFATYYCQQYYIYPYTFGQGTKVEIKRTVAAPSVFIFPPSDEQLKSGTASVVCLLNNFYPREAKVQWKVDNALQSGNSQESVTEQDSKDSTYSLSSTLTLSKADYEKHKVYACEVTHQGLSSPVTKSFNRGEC
heavy: B1 heavy
chain: B1 chain with I34K, G163S, Y235S, D237A
notes: anti-HER2 Fab x CD28 scFv BC8257 (VL-VH)-Fc

EC50: 3.68 nM
B8: TY28652 (bispecific antibody, human IgG1, kappa, N297A)
light: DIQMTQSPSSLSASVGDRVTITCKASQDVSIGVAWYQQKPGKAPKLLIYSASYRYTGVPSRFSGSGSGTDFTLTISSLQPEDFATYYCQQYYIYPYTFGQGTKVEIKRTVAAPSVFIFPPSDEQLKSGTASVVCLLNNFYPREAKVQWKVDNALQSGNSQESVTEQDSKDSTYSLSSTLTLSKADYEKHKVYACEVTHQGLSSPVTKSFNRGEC
heavy: B1 heavy
chain: B1 chain with H32Y, I34K, Q59E, R100P, E183S, S193N, Y234D, D237A
notes: anti-HER2 Fab x CD28 scFv BC8227 (VL-VH)-Fc

EC50: 0.954 nM
B11: TY28659 (bispecific antibody, human IgG1, kappa, N297A)
light: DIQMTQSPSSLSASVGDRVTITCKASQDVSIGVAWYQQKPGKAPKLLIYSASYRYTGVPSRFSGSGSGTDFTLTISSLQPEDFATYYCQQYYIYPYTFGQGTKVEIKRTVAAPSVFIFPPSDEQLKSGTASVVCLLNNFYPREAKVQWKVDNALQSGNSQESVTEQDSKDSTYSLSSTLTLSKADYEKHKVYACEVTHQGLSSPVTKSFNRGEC
heavy: B1 heavy
chain: B1 chain with G163S, S193N, Y234G, D237A
notes: anti-HER2 Fab x CD28 scFv BC8242 (VL-VH)-Fc
